Experiment [1] addresses T1, bovine serum albumin (bovine, UniProt P02769 25-607).
T1 construct: mature; also called bovine Alb
Kind of experiment: ELISA, coated albumin.

In experiment [2] the target is T2, chicken ovalbumin (chicken, UniProt P01012 2-386).
T2 construct: mature; also called chicken Alb
T2 sequence (looked up): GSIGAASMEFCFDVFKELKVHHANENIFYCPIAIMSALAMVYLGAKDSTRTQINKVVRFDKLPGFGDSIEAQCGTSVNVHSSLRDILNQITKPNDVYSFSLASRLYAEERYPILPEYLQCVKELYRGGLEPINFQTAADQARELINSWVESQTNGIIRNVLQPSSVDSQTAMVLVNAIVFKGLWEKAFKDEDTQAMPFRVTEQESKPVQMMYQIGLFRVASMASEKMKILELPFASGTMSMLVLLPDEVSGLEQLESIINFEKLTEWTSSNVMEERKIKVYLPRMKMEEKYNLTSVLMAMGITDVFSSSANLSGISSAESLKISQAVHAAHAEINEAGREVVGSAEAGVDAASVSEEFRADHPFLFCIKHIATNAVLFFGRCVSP
Kind of experiment: ELISA, coated albumin. In general terms: An ELISA detects its analyte on a solid surface through an enzyme-linked reagent.

In experiment [3] the target is T3, human serum albumin (human, UniProt P02768 25-609).
T3 construct: mature; also called human Alb
Kind of experiment: ELISA, coated albumin.

Experiment [4] deals with T4, sheep serum albumin (sheep, UniProt P14639 25-607).
T4 construct: mature; also called sheep Alb
T4 sequence (P14639 25-607): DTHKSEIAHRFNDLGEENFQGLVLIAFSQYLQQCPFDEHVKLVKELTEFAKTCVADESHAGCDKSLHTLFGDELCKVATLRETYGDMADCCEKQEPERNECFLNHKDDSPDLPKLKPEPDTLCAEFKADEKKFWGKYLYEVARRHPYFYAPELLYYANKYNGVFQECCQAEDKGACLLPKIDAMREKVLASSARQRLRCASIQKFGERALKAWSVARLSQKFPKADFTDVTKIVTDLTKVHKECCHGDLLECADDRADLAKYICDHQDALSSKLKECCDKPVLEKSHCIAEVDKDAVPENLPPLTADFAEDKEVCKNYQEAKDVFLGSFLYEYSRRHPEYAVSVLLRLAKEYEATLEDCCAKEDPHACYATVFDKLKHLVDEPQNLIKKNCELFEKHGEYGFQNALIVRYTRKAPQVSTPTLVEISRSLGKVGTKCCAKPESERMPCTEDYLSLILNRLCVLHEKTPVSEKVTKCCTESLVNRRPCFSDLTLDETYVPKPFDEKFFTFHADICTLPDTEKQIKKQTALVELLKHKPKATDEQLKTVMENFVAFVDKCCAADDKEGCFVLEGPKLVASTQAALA
Kind of experiment: ELISA, coated albumin.

Experiment [5] has as its target T5, dog serum albumin (dog, UniProt P49822 25-608).
T5 construct: mature; also called dog Alb; Canine albumin
The experiment is described as follows: ELISA, E. coli supernatant.

Experiment [6] addresses T3, human serum albumin. Kind of experiment: ELISA, E. coli supernatant.
For experiment [7], the target named is T5, dog serum albumin. Kind of experiment: ELISA, coated albumin, E. coli supernatant. Also: test concentration or dose not given here.
In experiment [8] the target is T6, horse serum albumin (horse, UniProt P35747 25-607).
T6 construct: mature; also called horse Alb; Equine albumin
T6 sequence (P35747 25-607): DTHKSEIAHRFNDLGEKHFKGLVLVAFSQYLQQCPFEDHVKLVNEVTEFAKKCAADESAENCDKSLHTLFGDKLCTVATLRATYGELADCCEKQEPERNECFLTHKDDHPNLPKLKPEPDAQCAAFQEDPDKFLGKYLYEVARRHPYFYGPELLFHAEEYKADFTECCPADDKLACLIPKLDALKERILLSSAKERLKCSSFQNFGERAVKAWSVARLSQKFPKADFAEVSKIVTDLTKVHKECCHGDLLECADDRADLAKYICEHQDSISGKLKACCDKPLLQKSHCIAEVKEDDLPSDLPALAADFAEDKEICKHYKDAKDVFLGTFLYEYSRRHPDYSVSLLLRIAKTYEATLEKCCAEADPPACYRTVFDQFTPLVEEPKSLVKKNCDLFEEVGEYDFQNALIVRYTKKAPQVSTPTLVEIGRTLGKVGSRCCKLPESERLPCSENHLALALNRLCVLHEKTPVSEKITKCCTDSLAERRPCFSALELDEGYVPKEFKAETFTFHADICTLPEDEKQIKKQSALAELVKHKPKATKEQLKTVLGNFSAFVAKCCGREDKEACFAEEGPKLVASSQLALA
Kind of experiment: ELISA, coated albumin, E. coli supernatant. Also: test concentration or dose not given here.

The target in experiment [9] is T3, human serum albumin. The experiment is described as follows: ELISA, coated albumin, E. coli supernatant. Also: test concentration or dose not given here.

Consider two molecules from patent US20240376185A1 (SMIVET B V, published 2024).

T5 sequence (P49822 25-608): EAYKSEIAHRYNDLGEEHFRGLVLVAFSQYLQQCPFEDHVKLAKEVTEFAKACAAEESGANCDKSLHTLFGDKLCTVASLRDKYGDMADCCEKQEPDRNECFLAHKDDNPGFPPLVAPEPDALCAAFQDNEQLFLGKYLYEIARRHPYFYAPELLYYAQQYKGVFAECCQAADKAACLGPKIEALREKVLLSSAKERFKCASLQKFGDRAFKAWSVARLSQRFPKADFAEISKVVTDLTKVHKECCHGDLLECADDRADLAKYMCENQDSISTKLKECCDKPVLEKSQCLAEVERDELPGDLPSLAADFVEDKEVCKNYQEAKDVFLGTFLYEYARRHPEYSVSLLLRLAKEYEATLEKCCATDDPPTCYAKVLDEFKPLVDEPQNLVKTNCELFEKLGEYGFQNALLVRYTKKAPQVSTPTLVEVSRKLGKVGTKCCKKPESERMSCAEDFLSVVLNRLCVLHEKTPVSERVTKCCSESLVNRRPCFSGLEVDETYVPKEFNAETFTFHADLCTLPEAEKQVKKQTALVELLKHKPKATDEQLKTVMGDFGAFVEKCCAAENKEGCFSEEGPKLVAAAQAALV
T1 sequence (P02769 25-607): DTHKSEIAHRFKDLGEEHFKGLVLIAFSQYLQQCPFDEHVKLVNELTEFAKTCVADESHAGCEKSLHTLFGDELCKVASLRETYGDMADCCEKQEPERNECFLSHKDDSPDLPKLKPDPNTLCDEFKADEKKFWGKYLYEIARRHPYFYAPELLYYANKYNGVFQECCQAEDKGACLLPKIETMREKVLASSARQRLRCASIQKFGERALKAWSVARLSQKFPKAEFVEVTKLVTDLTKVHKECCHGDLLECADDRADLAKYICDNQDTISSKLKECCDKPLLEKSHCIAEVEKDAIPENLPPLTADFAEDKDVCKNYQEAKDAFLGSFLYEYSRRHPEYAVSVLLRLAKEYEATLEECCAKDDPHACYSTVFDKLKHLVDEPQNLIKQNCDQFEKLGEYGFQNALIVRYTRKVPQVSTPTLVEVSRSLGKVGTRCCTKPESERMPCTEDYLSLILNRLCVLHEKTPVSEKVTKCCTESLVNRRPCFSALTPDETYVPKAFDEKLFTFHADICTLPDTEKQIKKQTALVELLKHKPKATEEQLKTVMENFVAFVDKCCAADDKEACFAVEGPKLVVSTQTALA

B1: SVA06L (VHH)
VHH: QVQLQESGGRLVQAEDSLRLSCAASGRTFVSYDMGWFRQAPGKEREFVAAINWRGYTTDYVDSVKGRFFISRDIAKSTVYLQMNNLKPEDTAVYYCAARQMSGSSRYSPPGRVGYDFWGQGTQVTVSS
notes: yeast-produced
On to B1, for which the binding result in [1], in experiment [2], in [3] and in [4] was “no binding (tested: 1 µg/ml)” throughout.

B2: SVA07 (VHH, not shown: large carriers)
VHH: QVQLQQSGGGLVQAGDSLRLSCAASGRAFNYYTMGWFRQAPGKEREFVAKIYWDGGSTIYADSVKGRFTISIDNAKNTVYLQMNSLKPEDTAVYYCAADPSFYPFRPKYWGQGTQVTVSS
In the case of B2, the binding result in experiment [5] and in experiment [6] was “no binding” in each case. Also, the “absorbance at 450 nm” value stood at 0.059 A450 in [7], 1.46 A450 in experiment [8] and 0.062 A450 in [9].
